Results reported in patent US20240101668A1 (WUGEN, published 2024).

Key:
[1] = target: T1, huCD33-G69-Fc recombinant protein (human, UniProt P20138 18-259); assay: BLI;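 note: biolayer interferometry: scFvs captured from periplasmic extracts on anti-V5-loaded streptavidin biosensors, antigen association for 2 min, buffer dissociation for 5 min, 1:1 Langmuir fit giving off-rate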
T1 construct: extracellular domain; also called CD33 R69G
Procedure: Discovered scFvs were analyzed for binding to huCD33-R69-His or huCD33-G69-Fc recombinant proteins (for anti-CD33 scFvs; for CLL-1 scFvs, huCLL1-K244-Avi-Tev-His or huCLL1-Q244-Avi-Tev-His were used; for FLT3, huFLT3-T227-His or huFLT3-M227-Fc were used) using BLI on a ForteBio Octet HTX instrument. Streptavidin-coated biosensors were loaded with biotinylated anti-V5 tag monoclonal antibody for 5 min and were then quenched and blocked with 20 μM amine-PEG2-Biotin for 5 min. scFvs were captured on biosensors from scFv clone periplasmic extracts. huCD33 (or huCLL-1, or huFLT3) proteins were then associated with the captured scFvs for 2 minutes, followed by dissociation with buffer (1×HBST [10 mM HEPES pH 7.4, 150 mM NaCl, 0.05% Tween-20], 1 g/L BSA) for 5 minutes. […] Data was fitted with 1:1 Langmuir equation and off-rate values were reported.

[2] = target: T2, huCD33-G69 stably expressed on Jurkat cells (human, UniProt P20138 18-364); assay: FACS on cells;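 note: fixed Jurkat lines probed with myc-tagged scFv periplasmic extracts, anti-myc PE flow cytometry, PE MFI fold binned − <2, + 2–10, ++ 10–30, +++ >30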
T2 construct: whole, on cells; >200,000 receptors per cell; also called CD33 Mutant; CD33 R69G
Procedure: (§1) Jurkat cells were engineered to stably express either the huCD33-R69 or huCD33-G69 variant at >200,000 receptors per cell. Parental, huCD33-R69, and huCD33-G69 Jurkat cell lines were stained with differing levels of CellTrace Violet Cell Proliferation Kit (ThermoFisher, cat. #C34557) to barcode each cell line. Barcoded Jurkat cell lines were fixed with paraformaldehyde and incubated with myc-labeled scFv periplasmic extracts and a secondary anti-myc PE-conjugated monoclonal antibody. Appropriate positive and negative controls were used. Stained cells were analyzed by flow cytometry (CytoFLEX, Beckman Coulter, Inc.) and binding was assessed by change in PE mean fluorescence intensity (MFI) of the barcoded cell populations.
(§2) Data is disclosed below in Table 16c, reporting FACS fold change over parental as (−), indicating <2 fold; (+), indicating 2-10 fold; (++), indicating 10-30 fold; and (+++), indicating >30 fold.

[3] = target: T3, huCD33-R69 stably expressed on Jurkat cells (human, UniProt P20138 18-364); assay: FACS on cells;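 note: fixed Jurkat lines probed with myc-tagged scFv periplasmic extracts, anti-myc PE flow cytometry, PE MFI fold binned − <2, + 2–10, ++ 10–30, +++ >30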
T3 construct: whole, on cells; >200,000 receptors per cell; also called CD33 WT; CD33^ARG69
T3 sequence (P20138 18-364): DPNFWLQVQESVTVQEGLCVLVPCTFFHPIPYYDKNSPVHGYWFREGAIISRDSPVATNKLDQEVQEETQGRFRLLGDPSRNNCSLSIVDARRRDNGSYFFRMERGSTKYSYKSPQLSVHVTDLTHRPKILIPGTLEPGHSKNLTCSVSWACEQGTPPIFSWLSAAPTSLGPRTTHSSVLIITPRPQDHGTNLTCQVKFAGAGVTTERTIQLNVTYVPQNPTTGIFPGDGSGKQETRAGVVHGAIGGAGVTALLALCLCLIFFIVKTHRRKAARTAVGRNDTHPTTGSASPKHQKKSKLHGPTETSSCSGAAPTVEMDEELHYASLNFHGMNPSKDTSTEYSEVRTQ
Procedure: as §1, §2

T2 sequence (P20138 18-364 R69G): as the sequence (P20138 18-364) above, with R52G counted along it
T1 sequence (P20138 18-259 R69G): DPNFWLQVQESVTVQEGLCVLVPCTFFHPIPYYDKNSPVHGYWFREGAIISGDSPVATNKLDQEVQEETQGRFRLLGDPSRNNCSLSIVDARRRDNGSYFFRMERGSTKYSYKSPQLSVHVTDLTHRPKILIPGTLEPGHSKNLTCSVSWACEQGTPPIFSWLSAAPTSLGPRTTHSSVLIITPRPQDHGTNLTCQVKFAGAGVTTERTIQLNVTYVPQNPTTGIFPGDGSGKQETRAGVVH

B1: Polypeptide No. 118 (scFv, V domains shown)
VH: EVQLVESGGGLVKPGGSLRLSCAASGFTISNAWMSWVRQAPGKGLEWVAHIWNDGSQKYYADSVKGRFTISRDDSKNTLYLQMNSLKTEDTAVYYCARDGALGVGPDDYWGQGTLVTVSS
VL: DIVMTQSPLSLPVTPGEPASISCRSSQSLLHSNGYNYLDWYLQKPGQSPQLLIYAASSLQSGVPDRFSGSGSGTDFTLKISRVEAEDVGVYYCMQGLQTPHTFGGGTKVEIKR
notes: scFv
binding result [1]: binds | FACS geometric mean fold change over Jurkat parental [2]: 2 to 10 fold | FACS geometric mean fold change over Jurkat parental [3]: 10 to 30 fold

B2: Polypeptide No. 119 (scFv, V domains shown)
VH: QVQLVQSGAEVKKPGASVKVSCKASGNTLTNDHIHWVRQAPGQGLEWMGWMNPNSGDTGYAQKFQGRVTMTRDTSTSTVYMELSSLRSEDTAVYYCARAGVDTAMVTYYYYGMDVWGQGTTVTVSS
VL: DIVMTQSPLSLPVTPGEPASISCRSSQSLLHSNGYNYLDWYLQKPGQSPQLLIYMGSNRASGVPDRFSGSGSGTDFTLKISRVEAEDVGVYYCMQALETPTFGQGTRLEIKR
notes: scFv
binding result [1]: binds | FACS geometric mean fold change over Jurkat parental [2]: > 30 fold | FACS geometric mean fold change over Jurkat parental [3]: 10 to 30 fold

B3: Polypeptide No. 115 (scFv, V domains shown)
VH: QVQLVQSGAEVKKPGASVKVSCKASGYTFTGYYMHWVRQAPGQGLEWMGIISPSGGSPTYAQKFQGRVTMTRDTSTSTVYMELSSLRSEDTAVYYCAREGNGGMDVWGQGTTVTVSS
VL: not shown
notes: scFv
binding result [1]: binds | FACS geometric mean fold change over Jurkat parental [2]: 10 to 30 fold | FACS geometric mean fold change over Jurkat parental [3]: 10 to 30 fold

B4: Polypeptide No. 116 (scFv, V domains shown)
VH: EVQLLESGGGLVQPGGSLRLSCAASGFTFSNYAMAWVRQAPGKGLEWVSAISGSGGGTYYADSVKGRFTISRDNSKNTLYLQMNSLRAEDTAVYYCAREGGYDPDYYYYGMDVWGQGTTVTVSS
VL: DIQMTQSPSSLSASVGDRVTITCRASQSISSYLNWYQQKPGKAPKLLIYATSRLQSGVPSRFSGSGSGTDFTLTISSLQPEDFATYYCQQGFNFPPTFGGGTKVEIKR
notes: scFv
binding result [1]: binds | FACS geometric mean fold change over Jurkat parental [2]: > 30 fold | FACS geometric mean fold change over Jurkat parental [3]: > 30 fold

B5: Polypeptide No. 121 (scFv, V domains shown)
VH: QVQLVQSGAEVKKPGASVKVSCKASGDSFTDYYIHWVRQAPGQGLEWMGWMNPNSGNTGYAQQFQGRVTMTRDTSTSTVYMELSSLRSEDTAVYYCARDREYSSSSRYFDLWGRGTLVTVSS
VL: DIQMTQSPSSLSASVGDRVTITCRASQNIGNWLAWYQQKPGKAPKLLIYAASTLQSGVPSRFSGSGSGTDFTLTISSLQPEDFATYYCQQSYNSITFGPGTKVDIKR
notes: scFv
binding result [1]: binds | FACS geometric mean fold change over Jurkat parental [2]: 10 to 30 fold | FACS geometric mean fold change over Jurkat parental [3]: 10 to 30 fold

B6: Polypeptide No. 110 (scFv, V domains shown)
VH: QVQLVQSGAEVKKPGASVKVSCKASGYTFTDYYVHWVRQAPGQGLEWMGWMNPNSGNTGYAQKFQGRVTMTRDTSTSTVYMELSSLRSEDTAVYYCARDFIWVEGYLASPPPRFDYWGQGTLVTVSS
VL: DIQMTQSPSSLSASVGDRVTITCRASQRIGNWLAWYQQKPGKAPKLLIYAASSLQSGVPSRFSGSGSGTDFTLTISSLQPEDFATYYCQQSYSTPLTFGQGTKLEIKR
notes: scFv
binding result [1]: binds | FACS geometric mean fold change over Jurkat parental [2]: > 30 fold | FACS geometric mean fold change over Jurkat parental [3]: > 30 fold

B7: Polypeptide No. 117 (scFv, V domains shown)
VH: EVQLLESGGGLVQPGGSLRLSCAASGFTFGDYPMSWVRQAPGKGLEWVAGISYDGLNEHYADSVKGRFTISRDNSKNTLYLQMNSLRAEDTAVYYCARDRDSGPSGFQHWGQGTLVTVSS
VL: DIQMTQSPSSLSASVGDRVTITCRASQTIGTWLAWYQQKPGKAPKLLIYDASSLESGVPSRFSGSGSGTDFTLTISSLQPEDFATYYCQQSYSTPPTFGQGTKVEIKR
notes: scFv
binding result [1]: binds | FACS geometric mean fold change over Jurkat parental [2]: 2 to 10 fold | FACS geometric mean fold change over Jurkat parental [3]: 2 to 10 fold

B8: Polypeptide No. 113 (scFv, V domains shown)
VH: QVQLVQSGAEVKKPGSSVKVSCKASGGTFSSYDINWVRQAPGQGLEWMGGLIPVFGTTHYAQNFQGRVTITADESTSTAYMELSSLRSEDTAVYYCATGLGVTTSNYYYGMDVWGQGTLVTVSS
VL: DIQMTQSPSSLSASVGDRVTITCRASQGIRNDIGWYQQKPGKAPKLLIYAASTLQSGVPSRFSGSGSGTDFTLTISSLQPEDFATYYCQQTYMMPYTFGQGTKLEIKR
notes: scFv
binding result [1]: binds | FACS geometric mean fold change over Jurkat parental [2]: 10 to 30 fold | FACS geometric mean fold change over Jurkat parental [3]: > 30 fold

B9: Polypeptide No. 112 (scFv, V domains shown)
VH: QVQLVQSGAEVKKPGSSVKVSCKASGSTLTGYDIHWVRQAPGQGLEWMGGIIPFLGTASYAQEFQGRVTITADESTSTAYMELSSLRSEDTAVYYCARGGGSGYDLDYWGQGTLVTVSS
VL: DIQMTQSPSSLSASVGDRVTITCRSSESISSWLAWYQQKPGKAPKLLIYSASTLQSGVPSRFSGSGSGTDFTLTISSLQPEDFATYYCQQSYSTPVTFGQGTRLEIKR
notes: scFv
binding result [1]: binds | FACS geometric mean fold change over Jurkat parental [2]: 2 to 10 fold | FACS geometric mean fold change over Jurkat parental [3]: 2 to 10 fold

B10: Polypeptide No. 126 (scFv, V domains shown)
VH: EVQLLESGGGLVQPGGSLRLSCAASGFTFTTYDMHWVRQAPGKGLEWVAGINWNSVIIDYADSVKGRFTISRDNSKNTLYLQMNSLRAEDTAVYYCAKDLLYYYDSIGAFDIWGQGTMVTVSS
VL: DIQMTQSPSSLSASVGDRVTITCRASQSISTWLAWYQQKPGKAPKLLIYAASSLQSGVPSRFSGSGSGTDFTLTISSLQPEDFATYYCQQSDTLPLTFGGGTKVEIKR
notes: scFv
binding result [1]: binds | FACS geometric mean fold change over Jurkat parental [2]: 10 to 30 fold | FACS geometric mean fold change over Jurkat parental [3]: > 30 fold

B11: Polypeptide No. 123 (scFv, V domains shown)
VH: EVQLLESGGGLVQPGGSLRLSCAASGFILGNAWMHWVRQAPGKGLEWVASVSGDGSDENYADSVKGRFTISRDNSKNTLYLQMNSLRAEDTAVYYCARDTHDYGDYAPFDYWGQGTLVTVSS
VL: DIQMTQSPSSLSASVGDRVTITCQASQDINNYLNWYQQKPGKAPKLLIYAASNLQSGVPSRFSGSGSGTDFTLTISSLQPEDFATYYCQQTYSFPLTFGGGTKVEIKR
notes: scFv
binding result [1]: binds | FACS geometric mean fold change over Jurkat parental [2]: > 30 fold | FACS geometric mean fold change over Jurkat parental [3]: > 30 fold

B12: Polypeptide No. 120 (scFv, V domains shown)
VH: QVQLVQSGAEVKKPGASVKVSCKASGYTFTTYYMHWVRQAPGQGLEWMGWMNPNSGNTGYAQKFQGRVTMTRDTSTSTVYMELSSLRSEDTAVYYCARGHKVDSGYDPYGMDVWGQGTTVTVSS
VL: DIQMTQSPSSLSASVGDRVTITCRASQSIGTYLHWYQQKPGKAPKLLIYAISTLQNGVPSRFSGSGSGTDFTLTISSLQPEDFATYYCQQSYSPPLTFGGGTKVEIKR
notes: scFv
binding result [1]: binds | FACS geometric mean fold change over Jurkat parental [2]: > 30 fold | FACS geometric mean fold change over Jurkat parental [3]: > 30 fold

B13: Polypeptide No. 114 (scFv, V domains shown)
VH: QVQLVQSGAEVKKPGASVKVSCKASGGTFSKYAISWVRQAPGQGLEWMGWMNPNSGNTGYAQKFQGRVTMTRDTSTSTVYMELSSLRSEDTAVYYCARDQGLTGYFDLWGRGTLVTVSS
VL: DIQMTQSPSSLSASVGDRVTITCRASQSIGNWLAWYQQKPGKAPKLLIYKASSLESGVPSRFSGSGSGTDFTLTISSLQPEDFATYYCQQSYNTPPTFGPGTKVDIKR
notes: scFv
binding result [1]: binds | FACS geometric mean fold change over Jurkat parental [2]: 10 to 30 fold | FACS geometric mean fold change over Jurkat parental [3]: > 30 fold

B14: Polypeptide No. 124 (scFv, V domains shown)
VH: EVQLVESGGGLVKPGGSLRLSCAASGFTFSSYWMHWVRQAPGKGLEWVAVIWYDGSNKYYADSVKGRFTISRDDSKNTLYLQMNSLKTEDTAVYYCVRDGARSGMDVWGQGTTVTVSS
VL: EIVMTQSPATLSVSPGERATLSCRASQSVSTYVAWYQQKPGQAPRLLIYGASTRATGIPARFSGSGSGTEFTLTISSLQSEDFAVYYCQQYYDTPLTFGGGTKVEIKR
notes: scFv
binding result [1]: binds | FACS geometric mean fold change over Jurkat parental [2]: > 30 fold | FACS geometric mean fold change over Jurkat parental [3]: > 30 fold

B15: Polypeptide No. 125 (scFv, V domains shown)
VH: QVQLVQSGAEVKKPGASVKVSCKASGYSFTTYDIHWVRQAPGQGLEWMGWMNPNSGNTGYAQKFQGRVTMTRDTSTSTVYMELSSLRSEDTAVYYCATDHWVLGGFDYWGQGTLVTVSS
VL: DIQMTQSPSSLSASVGDRVTITCQASQDISNYLNWYQQKPGKAPKLLIYAASTLQSGVPSRFSGSGSGTDFTLTISSLQPEDFATYYCQQYSYLPVTFGQGTKLEIKR
notes: scFv
binding result [1]: binds | FACS geometric mean fold change over Jurkat parental [2]: > 30 fold | FACS geometric mean fold change over Jurkat parental [3]: > 30 fold

B16: Polypeptide No. 111 (scFv, V domains shown)
VH: QVQLVQSGAEVKKPGASVKVSCKASGGTFTSYGISWVRQAPGQGLEWMGWINPNTGVTNYAQDFQGRVTMTRDTSTSTVYMELSSLRSEDTAVYYCANEQGGFDYWGQGTLVTVSS
VL: EIVMTQSPATLSVSPGERATLSCRASQSVAGSYLAWYQQKPGQAPRLLIYGASTRATGIPARFSGSGSGTEFTLTISSLQSEDFAVYYCQQYYSTPLTFGGGTKVEIKR
notes: scFv
binding result [1]: binds | FACS geometric mean fold change over Jurkat parental [2]: 10 to 30 fold | FACS geometric mean fold change over Jurkat parental [3]: > 30 fold

B17: Polypeptide No. 122 (scFv, V domains shown)
VH: QVQLVQSGAEVKKPGASVKVSCKASGYTFTDYWLHWVRQAPGQGLEWMGTINPSGGSTSYSHKFQGRVTMTRDTSTSTVYMELSSLRSEDTAVYYCAKEEEGFWSGYAFDYWGQGTLVTVSS
VL: not shown
notes: scFv
binding result [1]: binds | FACS geometric mean fold change over Jurkat parental [2]: > 30 fold | FACS geometric mean fold change over Jurkat parental [3]: 10 to 30 fold
